Biological target: GST-Fbw7 (residues 263 to 707)-Skp1 complex (UniProt Q969H0)
Test: AlphaScreen or HTRF

Myc T58 degron peptide, monophosphorylated (pT58)
IC50: 1320 nM
